Source: ChEMBL document CHEMBL2074015, “Effect of ionization on the variable uptake of valacyclovir via the human intestinal peptide transporter (hPepT1) in CHO cells” (Biopharm Drug Dispos, 2000)

Key:
Settings in all cases: CHO
[1] = substrate: CC(C)[C@H](N)C(=O)OCCOCn1cnc2c(=O)nc(N)[nH]c21
Description: TP_TRANSPORTER: uptake (pH 7.9) in PEPT1-expressing CHO cells

[2] = substrate: CC(C)[C@H](N)C(=O)OCCOCn1cnc2c(=O)nc(N)[nH]c21; remark: listed apart in the source
Description: TP_TRANSPORTER: uptake (pH 7.5) in PEPT1-expressing CHO cells

[3] = substrate: CC(C)[C@H](N)C(=O)OCCOCn1cnc2c(=O)nc(N)[nH]c21; remark: listed apart in the source
Description: TP_TRANSPORTER: uptake (pH 6.8) in PEPT1-expressing CHO cells

[4] = substrate: CC(C)[C@H](N)C(=O)OCCOCn1cnc2c(=O)nc(N)[nH]c21; remark: listed apart in the source
Description: TP_TRANSPORTER: uptake (pH 6.2) in PEPT1-expressing CHO cells

[5] = substrate: CC(C)[C@H](N)C(=O)OCCOCn1cnc2c(=O)nc(N)[nH]c21; remark: listed apart in the source
Description: TP_TRANSPORTER: uptake (pH 5.5) in PEPT1-expressing CHO cells

B1: Solute carrier family 15 member 1 (Homo sapiens), P46059 (protein)
chain: MGMSKSHSFFGYPLSIFFIVVNEFCERFSYYGMRAILILYFTNFISWDDNLSTAIYHTFVALCYLTPILGALIADSWLGKFKTIVSLSIVYTIGQAVTSVSSINDLTDHNHDGTPDSLPVHVVLSLIGLALIALGTGGIKPCVSAFGGDQFEEGQEKQRNRFFSIFYLAINAGSLLSTIITPMLRVQQCGIHSKQACYPLAFGVPAALMAVALIVFVLGSGMYKKFKPQGNIMGKVAKCIGFAIKNRFRHRSKAFPKREHWLDWAKEKYDERLISQIKMVTRVMFLYIPLPMFWALFDQQGSRWTLQATTMSGKIGALEIQPDQMQTVNAILIVIMVPIFDAVLYPLIAKCGFNFTSLKKMAVGMVLASMAFVVAAIVQVEIDKTLPVFPKGNEVQIKVLNIGNNTMNISLPGEMVTLGPMSQTNAFMTFDVNKLTRINISSPGSPVTAVTDDFKQGQRHTLLVWAPNHYQVVKDGLNQKPEKGENGIRFVNTFNELITITMSGKVYANISSYNASTYQFFPSGIKGFTISSTEIPPQCQPNFNTFYLEFGSAYTYIVQRKNDSCPEVKVFEDISANTVNMALQIPQYFLLTCGEVVFSVTGLEFSYSQAPSNMKSVLQAGWLLTVAVGNIIVLIVAGAGQFSKQWAEYILFAALLLVVCVIFAIMARFYTYINPAEIEAQFDEDEKKNRLEKSNPYFMSGANSQKQM
[1]
  Km: 2.2 mM
[2]
  Km: 2.7 mM
[3]
  Km: 5.4 mM
[4]
  Km: 6.6 mM
[5]
  Km: 7.4 mM
